Measurements: PMC8463545 (2021)

T1: RpfG-MBP (Lysobacter enzymogenes)
T1 chain: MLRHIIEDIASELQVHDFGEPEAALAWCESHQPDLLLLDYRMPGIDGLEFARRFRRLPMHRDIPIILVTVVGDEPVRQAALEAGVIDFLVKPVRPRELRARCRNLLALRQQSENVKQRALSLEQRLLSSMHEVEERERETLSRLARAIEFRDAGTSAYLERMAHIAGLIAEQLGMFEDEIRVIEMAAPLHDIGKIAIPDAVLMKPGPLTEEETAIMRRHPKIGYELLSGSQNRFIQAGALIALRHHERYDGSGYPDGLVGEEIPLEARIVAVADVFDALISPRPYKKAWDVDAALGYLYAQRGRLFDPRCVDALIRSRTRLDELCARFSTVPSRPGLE

B1: HtsH1C-Flag-His (domain or fragment)
chain: not shown
modifications: Phosphorylated as purified (CIAP-sensitive). Limits from the expression primers: (M)AKTRFL... to ...LFEREA, just before the His-kinase domain to the C-terminus. The start codon Met and Flag/His tags are left out. Positions are inferred from the candidate's domain features. The entry is probably not from strain OH11.
B2: HtsH2C-HA-His (domain or fragment)
chain: not shown
modifications: Phosphorylated as purified (CIAP-sensitive). Primers give (M)AKTRFL... to ...DAADAP (C-terminus). The candidate lists no features, so the start is estimated from the paralogues' fragment lengths and may be off by a few residues. Assignment of this entry to HtsH2 is inferred. The entry is probably not from strain OH11.
B3: HtsH3C-Myc-His (domain or fragment)
chain: not shown
modifications: Phosphorylated as purified (CIAP-sensitive). Primers give (M)AKTRFL... to ...ARRGEG (C-terminus). Positions are inferred from the candidate's His-kinase domain start. Assignment of this entry to HtsH3 is inferred. The entry is probably not from strain OH11.

Legend:
RpfG-MBP [1] = target: T1, RpfG-MBP; assay: SPR
RpfG-MBP [2] = target: T1, RpfG-MBP; assay: SPR

Binder	Ka (RpfG-MBP [1])	koff (RpfG-MBP [2])
B1	1.5e+07 M⁻¹	0.00118 s⁻¹
B2	3.34e+06 M⁻¹	0.00129 s⁻¹
B3	5.96e+06 M⁻¹	0.000738 s⁻¹
